Measured values: patent US20230242666A1

B1: 763.74(A)4-1BB CAR (protein, not shown: small tags and cut ends)
chain: MQVKLKESGPELKKPGETVKISCKASGYTFTDYSMHWVKKTPGKGLKWLGWINTATGEPTYADDFKGRFAISLETSARTVYLQINNLRNEDTATYFCFSYYDYWGQGTTVTVSSGGGGSGGGGSGGGGDIKLSQSPSILSVTPGETVSLSCRASQTIYKNLHWYQQKSHRSPRLLIKYGSDSISGIPSRFTGSGSGTDYTLNINSVKPEDQGIYYCLQGYSTPWTFGGGTKLEIK
B2: 763.74(A)CD28 CAR (protein, not shown: small tags and cut ends)
chain: MQVKLKESGPELKKPGETVKISCKASGYTFTDYSMHWVKKTPGKGLKWLGWINTATGEPTYADDFKGRFAISLETSARTVYLQINNLRNEDTATYFCFSYYDYWGQGTTVTVSSGGGGSGGGGSGGGGDIKLSQSPSILSVTPGETVSLSCRASQTIYKNLHWYQQKSHRSPRLLIKYGSDSISGIPSRFTGSGSGTDYTLNINSVKPEDQGIYYCLQGYSTPWTFGGGTKLEIK
B3: h763.74(#2)CD28 CAR (protein, not shown: large carriers)
chain: MDIKLTQSPSILSASVGDRVIITCRASQTIYKNLHWYQQKPHRSPRLLIKYGSDSISGIPSRFSGSGSGTEYTLTISSLQPDDFAIYYCLQGYSTPWTFGGGTKLTVLGGGGGSGGGGSGGGGSGGGGSQVQLVESGGGLVQPGGSLRLSCTASGYTFTDYSMHWVRKTPGKGLKWVGWINTATGEPTYADDFKGRFTISLDTSKNTVYLQMNSLRAEDTATYFCFSYYDYWGQGTTVTVSS
B4: h763.74(#5)CD28 CAR (protein, not shown: large carriers)
chain: MEIVMTQSPSTLSASVGDRVIITCRASQTIYKNLHWYQQKPGKSPKLLIKYGSDSISGVPSRFSGSGSGTEYTLTISSLQPDDFATYYCLQGYSTPWTFGQGTKLTVLGGGGGSGGGGSGGGGSGGGGSQVQLVESGGGLVQPGGSLRLSCTASGYTFTDYSMHWVRKAPGKGLEWVGWINTATGEPTYADDFKGRFTISLDTSKNTVYLQMNSLRAEDTAVYFCASYYDYWGQGTLVTVSS

Target: chondroitin sulfate proteoglycan 4 (CSPG4) (human) (UniProt Q6UVK1)
Test: cell-based or functional assay

Chain of UniProt Q6UVK1 (Q6UVK1 30-2322): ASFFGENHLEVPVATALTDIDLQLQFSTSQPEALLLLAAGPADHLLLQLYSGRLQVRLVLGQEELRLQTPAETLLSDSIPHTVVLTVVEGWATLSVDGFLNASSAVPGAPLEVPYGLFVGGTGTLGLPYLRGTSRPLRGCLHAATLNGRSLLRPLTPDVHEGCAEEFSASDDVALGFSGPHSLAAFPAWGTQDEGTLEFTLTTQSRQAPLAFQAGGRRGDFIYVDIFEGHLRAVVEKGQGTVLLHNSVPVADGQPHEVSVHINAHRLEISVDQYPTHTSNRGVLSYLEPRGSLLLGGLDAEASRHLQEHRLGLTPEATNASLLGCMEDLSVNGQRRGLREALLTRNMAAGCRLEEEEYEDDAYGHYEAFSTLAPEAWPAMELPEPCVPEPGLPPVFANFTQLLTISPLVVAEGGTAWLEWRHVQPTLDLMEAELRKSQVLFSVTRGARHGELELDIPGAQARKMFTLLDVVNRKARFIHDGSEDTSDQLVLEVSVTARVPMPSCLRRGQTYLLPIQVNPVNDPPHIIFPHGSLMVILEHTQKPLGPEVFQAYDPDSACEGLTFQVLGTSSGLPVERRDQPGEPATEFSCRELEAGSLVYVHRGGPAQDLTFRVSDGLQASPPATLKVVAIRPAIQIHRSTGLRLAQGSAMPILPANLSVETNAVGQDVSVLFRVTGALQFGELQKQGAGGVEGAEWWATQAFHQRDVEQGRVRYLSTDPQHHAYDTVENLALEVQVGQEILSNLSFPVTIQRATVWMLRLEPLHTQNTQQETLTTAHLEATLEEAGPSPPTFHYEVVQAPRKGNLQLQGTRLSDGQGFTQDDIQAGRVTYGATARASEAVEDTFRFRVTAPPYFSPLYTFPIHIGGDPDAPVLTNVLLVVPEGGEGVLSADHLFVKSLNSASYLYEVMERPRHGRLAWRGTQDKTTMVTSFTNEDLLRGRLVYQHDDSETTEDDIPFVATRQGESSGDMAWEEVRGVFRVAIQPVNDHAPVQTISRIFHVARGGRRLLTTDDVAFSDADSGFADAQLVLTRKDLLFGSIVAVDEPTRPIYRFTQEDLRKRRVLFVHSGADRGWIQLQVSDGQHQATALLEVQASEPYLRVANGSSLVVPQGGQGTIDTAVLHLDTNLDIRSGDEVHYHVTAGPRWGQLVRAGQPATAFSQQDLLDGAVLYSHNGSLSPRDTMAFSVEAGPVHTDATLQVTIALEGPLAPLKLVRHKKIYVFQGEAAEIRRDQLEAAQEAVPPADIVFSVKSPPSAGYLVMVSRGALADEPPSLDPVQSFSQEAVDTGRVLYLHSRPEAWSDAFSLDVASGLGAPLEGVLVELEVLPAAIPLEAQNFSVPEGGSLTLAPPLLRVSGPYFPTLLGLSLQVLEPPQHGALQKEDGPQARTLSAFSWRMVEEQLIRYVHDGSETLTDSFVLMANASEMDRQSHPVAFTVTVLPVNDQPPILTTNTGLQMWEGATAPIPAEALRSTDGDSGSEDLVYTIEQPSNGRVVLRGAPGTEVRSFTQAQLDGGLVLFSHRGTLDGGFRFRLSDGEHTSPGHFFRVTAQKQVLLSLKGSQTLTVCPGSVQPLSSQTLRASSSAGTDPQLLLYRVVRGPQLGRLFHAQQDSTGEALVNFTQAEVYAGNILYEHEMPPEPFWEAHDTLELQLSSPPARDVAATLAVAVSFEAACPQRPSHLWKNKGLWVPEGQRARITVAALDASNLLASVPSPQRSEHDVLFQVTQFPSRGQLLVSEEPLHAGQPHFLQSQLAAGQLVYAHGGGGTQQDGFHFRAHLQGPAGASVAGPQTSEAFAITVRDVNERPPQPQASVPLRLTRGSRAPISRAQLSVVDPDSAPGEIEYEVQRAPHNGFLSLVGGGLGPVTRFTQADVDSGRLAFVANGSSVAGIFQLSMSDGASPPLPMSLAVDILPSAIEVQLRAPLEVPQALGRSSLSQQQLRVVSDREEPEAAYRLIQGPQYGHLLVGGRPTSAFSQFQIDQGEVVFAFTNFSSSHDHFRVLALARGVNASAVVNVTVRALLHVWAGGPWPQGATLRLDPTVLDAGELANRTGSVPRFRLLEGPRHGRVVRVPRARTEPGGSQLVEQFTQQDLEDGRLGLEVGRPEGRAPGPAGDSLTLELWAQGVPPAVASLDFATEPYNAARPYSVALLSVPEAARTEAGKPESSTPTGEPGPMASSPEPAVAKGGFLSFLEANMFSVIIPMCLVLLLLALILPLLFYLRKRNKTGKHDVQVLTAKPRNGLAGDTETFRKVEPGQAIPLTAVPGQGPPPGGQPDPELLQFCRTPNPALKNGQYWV

| Binder | residual tumor cells after coculture of CAR-T cells with WM115 (CSPG4+) melanoma cells, E:T 1:5 [%] | residual tumor cells after coculture of CAR-T cells with CSPG4+ WM115 melanoma cells [%] |
| --- | --- | --- |
| B1 | 43.6 |  |
| B2 | 2.2 |  |
| B3 |  | 11 |
| B4 |  | 10 |
